What all share (experiment): cell-based or functional assay
Test [1] has as its target pAS2 vector (empty bait control).
For test [2], the target named is T1, AR-AT (yeast 2-hybrid bait) (UniProt P10275 1-505).
T1 sequence (looked up): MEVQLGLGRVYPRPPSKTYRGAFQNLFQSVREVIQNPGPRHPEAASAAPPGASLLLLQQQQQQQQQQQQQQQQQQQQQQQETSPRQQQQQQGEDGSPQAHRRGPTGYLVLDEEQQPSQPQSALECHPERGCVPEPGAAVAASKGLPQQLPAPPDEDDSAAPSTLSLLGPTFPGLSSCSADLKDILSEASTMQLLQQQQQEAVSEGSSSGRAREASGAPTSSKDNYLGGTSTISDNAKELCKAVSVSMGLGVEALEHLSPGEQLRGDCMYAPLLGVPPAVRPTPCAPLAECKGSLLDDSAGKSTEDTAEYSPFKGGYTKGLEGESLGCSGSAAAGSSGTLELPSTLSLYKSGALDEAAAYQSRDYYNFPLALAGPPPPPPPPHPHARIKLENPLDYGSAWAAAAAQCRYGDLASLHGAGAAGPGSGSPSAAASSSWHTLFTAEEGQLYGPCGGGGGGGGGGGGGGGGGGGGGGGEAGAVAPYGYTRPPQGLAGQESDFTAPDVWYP

The target of test [3] is cortactin (yeast 2-hybrid bait).
Test [4] has as its target T2, AR-DBD (yeast 2-hybrid bait) (UniProt P10275 506-636).
T2 sequence (looked up): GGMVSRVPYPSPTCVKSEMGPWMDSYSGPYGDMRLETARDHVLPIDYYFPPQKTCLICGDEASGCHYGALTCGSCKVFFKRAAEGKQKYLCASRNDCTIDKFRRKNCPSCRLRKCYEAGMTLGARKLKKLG

In test [5] the target is T3, AR-DBD + LBD (yeast 2-hybrid bait) (UniProt P10275 506-920).
T3 sequence (looked up): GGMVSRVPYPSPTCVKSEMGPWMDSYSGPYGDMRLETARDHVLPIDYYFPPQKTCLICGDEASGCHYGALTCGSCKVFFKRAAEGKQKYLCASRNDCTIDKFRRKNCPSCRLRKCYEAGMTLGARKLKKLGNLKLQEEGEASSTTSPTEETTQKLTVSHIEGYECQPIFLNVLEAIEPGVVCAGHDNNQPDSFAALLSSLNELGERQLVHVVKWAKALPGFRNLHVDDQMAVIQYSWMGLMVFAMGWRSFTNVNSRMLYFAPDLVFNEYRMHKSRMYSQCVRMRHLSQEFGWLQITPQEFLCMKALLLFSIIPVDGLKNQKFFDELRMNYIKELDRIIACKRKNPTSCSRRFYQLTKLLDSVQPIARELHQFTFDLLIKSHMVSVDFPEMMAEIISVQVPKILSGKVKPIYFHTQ

B1: pACT2-PAK (yeast 2-hybrid prey) (other, not shown: large carriers)
chain: LKRRLFRSMFLSTAATAPPSSSKPGPPPQSKPNSSFRPPQKDNPPSLVAKAQSLPSDQPVGTFSPLTTSDTSSPQKSLRTAPATGQLPGRSSPAGSPRTWHAQISTSNLYLPQDPTVAKGALAGEDTGVVTHEQFKAALRMVVDQGDPRLLLDSYVKIGEGSTGIVCLAREKHSGRQVAVKMMDLRKQQRRELLFNEVVIMRDYQHFNVVEMYKNYLVGEELWVLMEFLQGGALTDIVSQVRLNEEQIATVCEAVLQALAYLHAQGVIHRDIKSDSILLTLDGRVKLSDFGFCAQISKDVPKRKSLVGTPYWMAPEVISRSLYATEVDIWSLGIMVIEMVDGEPPYFSDSPVQAMKRLRDSPPPKLKNSHKVSPVLRDFLERMLVRDPQERATAQELLDHPFLLQTGLPECLVPLIQLYRKQTSTC
B1: the “Fold induction of β-galactosidase by DHT (yeast 2-hybrid)” value in test [1] was 1.2 fold; in test [2] it was 1.1 fold; in test [3], 1 fold; in test [4], 0.9 fold; in test [5] it was 27 fold.

B2: pGAD424-GRIP1 (yeast 2-hybrid prey, GRIP1 amino acids 730-1121) (other, UniProt Q61026 730-1121, looked up, not shown: large carriers)
chain: VKQEPASPKKKENALLRYLLDKDDTKDIGLPEITPKLERLDSKTDPASNTKLIAMKTVKEEVSFEPSDQPGSELDNLEEILDDLQNSQLPQLFPDTRPGAPTGSVDKQAIINDLMQLTADSSPVPPAGAQKAALRMSQSTFNNPRPGQLGRLLPNQNLPLDITLQSPTGAGPFPPIRNSSPYSVIPQPGMMGNQGMLGSQGNLGNNSTGMIGSSTSRPSMPSGEWAPQSPAVRVTCAATTGAMNRPVQGGMIRNPTASIPMRANSQPGQRQMLQSQVMNIGPSELEMNMGGPQYNQQQAPPNQTAPWPESILPIDQASFASQNRQPFGSSPDDLLCPHPAAESPSDEGALLDQLYLALRNFDGLEEIDRALGIPELVSQSQAVDAEQFSSQE
Take B2: the “Fold induction of β-galactosidase by DHT (yeast 2-hybrid)” value in test [5] was 5.7 fold.

The record behind these values is patent publication US20030166623A1 (BETH ISRAEL DEACONESS MEDICAL CENTER, published 2003).
